Key:
HLA-A*1501 (human) [1] = experiment: iTopia net score
HLA-A*1501 (human) [2] = experiment: iTopia affinity
HLA-A*0201 (human) [3] = experiment: iTopia net score
HLA-A*0201 (human) [4] = experiment: iTopia binding
HLA-A*0201 (human) [5] = experiment: iTopia affinity

Row | iScore (HLA-A*1501 (human) [1]) | ED50 (HLA-A*1501 (human) [2]) | iScore (HLA-A*0201 (human) [3]) | binding vs positive control (HLA-A*0201 (human) [4]) | ED50 (HLA-A*0201 (human) [5]) | Binder
1 | 0.255 | 8.6 µM |  |  |  | QQLGATGAY [cdr2 235-243 …]
2 | 0.075 | 170 µM |  |  |  | MRQMLQSEH [cdr2 257-265 …]
3 | 0.065 | 110 µM |  |  |  | RQKRVTMEE [cdr2 213-221 …]
4 | 0.09 | 42 µM |  |  |  | LQQDLQLAA [cdr2 24-32 …]
5 | 0.098 | 45 µM |  |  |  | YDLRQHFVY [cdr2 165-173 …]
6 |  |  | 0.584 | > 30% | 2 µM | MLQSEHPFV (modifications not checked) [cdr2 260-268 …]
7 | 0.106 | 68 µM |  |  |  | LLRQMNEQH [cdr2 72-80 …]
8 | 0.072 | 45 µM |  |  |  | PSFACLKEL [cdr2 156-164 …]

— patent US20090208538A1
